Laboratory results published in patent US20100093619A1.

Columns and labels:
Test in all cases: cell-based or functional assay
[1] = target: cysteine-like cathepsin-B protease activity from Acyrthosiphon pisum (pea aphid) extracts (Acyrthosiphon pisum)
[2] = target: cysteine-like cathepsin-B protease activity from Leptinotarsa decemlineata (Colorado potato beetle) gut extracts (Leptinotarsa decemlineata)
[3] = target: cysteine-like cathepsin-L protease activity from Acyrthosiphon pisum (pea aphid) extracts (Acyrthosiphon pisum)
[4] = target: cysteine-like cathepsin-L protease activity from Bemisia tabaci (sweetpotato whitefly) extracts (Bemisia tabaci)
[5] = target: cysteine-like cathepsin-L protease activity from Leptinotarsa decemlineata (Colorado potato beetle) gut extracts (Leptinotarsa decemlineata)
[6] = target: cysteine-like cathepsin-L protease activity from Tetranychus urticae (spider mite) extracts (Tetranychus urticae)
[7] = target: cysteine-like cathepsin-L protease activity from Tribolium castaneum (red flour beetle) extracts (Tribolium castaneum)
[8] = target: serine-like chymotrypsin protease activity from Sesamia nonagrioides (Mediterranean corn borer) gut extracts (Sesamia nonagrioides)
[9] = target: serine-like chymotrypsin protease activity from Spodoptera littoralis (cotton leafworm) gut extracts (Spodoptera littoralis)
[10] = target: serine-like trypsin protease activity from Ostrinia nubilalis (European corn borer) gut extracts (Ostrinia nubilalis)
[11] = target: serine-like trypsin protease activity from Sesamia nonagrioides (Mediterranean corn borer) gut extracts (Sesamia nonagrioides)
[12] = target: serine-like trypsin protease activity from Spodoptera littoralis (cotton leafworm) gut extracts (Spodoptera littoralis)

B1: recombinant AtSerpin1 (Arabidopsis thaliana serpin-1, At1g47710), HIS6-tagged (protein, not shown: small tags and cut ends)
chain: MDVRESISLQNQVSMNLAKHVITTVSQNSNVIFSPASINVVLSIIAAGSAGATKDQILSFLKFSSTDQLNSFSSEIVSAVLADGSANGGPKLSVANGAWIDKSLSFKPSFKQLLEDSYKAASNQADFQSKAVEVIAEVNSWAEKETNGLITEVLPEGSADSMTKLIFANALYFKGTWNEKFDESLTQEGEFHLLDGNKVTAPFMTSKKKQYVSAYDGFKVLGLPYLQGQDKRQFSMYFYLPDANNGLSDLLDKIVSTPGFLDNHIPRRQVKVREFKIPKFKFSFGFDASNVLKGLGLTSPFSGEEGLTEMVESPEMGKNLCVSNIFHKACIEVNEEGTEAAAASAGVIKLRGLLMEEDEIDFVADHPFLLVVTENITGVVLFIGQVVDPLH
- % Inhibition of cathepsin B activity at 1.25 µM AtSerpin1 [1]: 50%
- % Inhibition of cathepsin B activity at 5 µM AtSerpin1 [1]: 55%
- % Inhibition of cathepsin B activity at 10 µM AtSerpin1 [1]: 55%
- concentration of AtSerpin1 for 50% inhibition of cathepsin-B activity (FIG. 14) [1]: 1 µM
- % Inhibition of cathepsin B activity at 1.25 µM AtSerpin1 [2]: 40%
- % Inhibition of cathepsin B activity at 5 µM AtSerpin1 [2]: 47%
- % Inhibition of cathepsin B activity at 10 µM AtSerpin1 [2]: 46%
- concentration of AtSerpin1 for 50% inhibition of cathepsin-B activity (fluorometric substrate, FIG. 12) [2]: > 10 µM
- % Inhibition of cathepsin L activity at 1.25 µM AtSerpin1 [3]: 42%
- % Inhibition of cathepsin L activity at 5 µM AtSerpin1 [3]: 42%
- % Inhibition of cathepsin L activity at 10 µM AtSerpin1 [3]: 39%
- plateau of % inhibition of cathepsin-L activity (FIG. 14) [3]: 60%
- % inhibition of cathepsin-L activity at 20 µM AtSerpin1 (FIG. 15) [4]: 45%
- % Inhibition of cathepsin L activity at 1.25 µM AtSerpin1 [5]: 4%
- % Inhibition of cathepsin L activity at 5 µM AtSerpin1 [5]: 34%
- % Inhibition of cathepsin L activity at 10 µM AtSerpin1 [5]: 48%
- concentration of AtSerpin1 for 50% inhibition of cathepsin-L activity (fluorometric substrate, FIG. 12) [5]: > 10 µM
- concentration of AtSerpin1 for 50% inhibition of cathepsin-L activity (FIG. 16) [6]: 2 µM
- IC50 of inhibition of cathepsin-L activity (FIG. 13) [7]: 4 µM
- concentration of AtSerpin1 for ≧50% inhibition of chymotrypsin activity (FIG. 11) [8]: > 10 µM
- % Inhibition of chymotrypsin activity at 1.25 µM AtSerpin1 [9]: 10%
- % Inhibition of chymotrypsin activity at 5 µM AtSerpin1 [9]: 31%
- % Inhibition of chymotrypsin activity at 10 µM AtSerpin1 [9]: 40%
- concentration of AtSerpin1 for 50% inhibition of chymotrypsin activity (FIG. 10) [9]: 10 to 20 µM
- % Inhibition of trypsin activity at 2 µM AtSerpin1 [10]: 28%
- % Inhibition of trypsin activity at 1.25 µM AtSerpin1 [11]: 90%
- % Inhibition of trypsin activity at 5 µM AtSerpin1 [11]: 97%
- % Inhibition of trypsin activity at 10 µM AtSerpin1 [11]: 98%
- concentration of AtSerpin1 for 50% inhibition of trypsin activity (FIG. 11) [11]: 0.1 µM
- % Inhibition of trypsin activity at 1.25 µM AtSerpin1 [12]: 52%
- % Inhibition of trypsin activity at 5 µM AtSerpin1 [12]: 83%
- % Inhibition of trypsin activity at 10 µM AtSerpin1 [12]: 90%
- concentration of AtSerpin1 for 50% inhibition of trypsin activity (fluorometric substrate, FIG. 10) [12]: 1 µM
